The target in data set [1] is T1, SfiI endonuclease wt (UniProt O52512 1-269).
T1 sequence: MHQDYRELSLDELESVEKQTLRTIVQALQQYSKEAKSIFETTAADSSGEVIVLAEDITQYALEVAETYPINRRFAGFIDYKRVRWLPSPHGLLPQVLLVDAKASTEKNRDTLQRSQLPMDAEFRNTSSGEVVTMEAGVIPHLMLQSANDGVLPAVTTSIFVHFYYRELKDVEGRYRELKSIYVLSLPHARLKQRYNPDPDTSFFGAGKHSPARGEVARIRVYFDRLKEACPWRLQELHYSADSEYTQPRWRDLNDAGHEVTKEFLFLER
The data set can be described thus: competition.

The target in data set [2] is T2, SfiI D79A (UniProt O52512 1-269, D79A).
T2 sequence: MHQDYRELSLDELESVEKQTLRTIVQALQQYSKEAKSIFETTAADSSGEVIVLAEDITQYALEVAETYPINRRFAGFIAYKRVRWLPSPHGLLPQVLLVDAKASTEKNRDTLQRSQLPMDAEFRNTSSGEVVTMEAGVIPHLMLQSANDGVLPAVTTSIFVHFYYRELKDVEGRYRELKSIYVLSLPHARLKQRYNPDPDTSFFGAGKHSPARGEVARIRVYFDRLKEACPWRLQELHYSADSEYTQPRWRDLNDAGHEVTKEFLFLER
As to the kind of experiment: competition.

The target of data set [3] is T3, SfiI D100A (UniProt O52512 1-269, D100A).
T3 sequence: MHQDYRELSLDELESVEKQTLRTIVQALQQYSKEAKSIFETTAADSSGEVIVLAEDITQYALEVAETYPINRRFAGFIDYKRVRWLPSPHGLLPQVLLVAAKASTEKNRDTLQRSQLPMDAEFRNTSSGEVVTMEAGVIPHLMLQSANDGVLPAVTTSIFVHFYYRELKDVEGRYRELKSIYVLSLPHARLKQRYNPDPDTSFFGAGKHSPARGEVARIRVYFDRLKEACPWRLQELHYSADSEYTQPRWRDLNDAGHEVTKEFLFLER
As to the kind of experiment: competition.

Data set [4] concerns the molecule itself. The data set can be described thus: AUC.
Data set [5] deals with T3, SfiI D100A. The data set can be described thus: EMSA.
Data set [6] addresses T1, SfiI endonuclease wt. As to the kind of experiment: EMSA.
Data set [7] addresses T2, SfiI D79A. As to the kind of experiment: EMSA.

B1: C-21 (dsDNA)
DNA 1: ATGTGGCCAACAAGGCCTATT
DNA 2: AATAGGCCTTGTTGGCCACAT
For B1, the binding result in data set [1], in data set [2] and in data set [3] was “binds” in each case.

B2: SfiI restriction endonuclease D79A mutant (enzyme)
chain: MHQDYRELSLDELESVEKQTLRTIVQALQQYSKEAKSIFETTAADSSGEVIVLAEDITQYALEVAETYPINRRFAGFIAYKRVRWLPSPHGLLPQVLLVDAKASTEKNRDTLQRSQLPMDAEFRNTSSGEVVTMEAGVIPHLMLQSANDGVLPAVTTSIFVHFYYRELKDVEGRYRELKSIYVLSLPHARLKQRYNPDPDTSFFGAGKHSPARGEVARIRVYFDRLKEACPWRLQELHYSADSEYTQPRWRDLNDAGHEVTKEFLFLER
Take B2: the “stoichiometry N” value in data set [4] was 4.

B3: SfiI restriction endonuclease D100A mutant (enzyme)
chain: MHQDYRELSLDELESVEKQTLRTIVQALQQYSKEAKSIFETTAADSSGEVIVLAEDITQYALEVAETYPINRRFAGFIDYKRVRWLPSPHGLLPQVLLVAAKASTEKNRDTLQRSQLPMDAEFRNTSSGEVVTMEAGVIPHLMLQSANDGVLPAVTTSIFVHFYYRELKDVEGRYRELKSIYVLSLPHARLKQRYNPDPDTSFFGAGKHSPARGEVARIRVYFDRLKEACPWRLQELHYSADSEYTQPRWRDLNDAGHEVTKEFLFLER
Regarding B3, the “stoichiometry N” value in data set [4] came to 4.

B4: HEX-35 (dsDNA)
DNA 1: TCGATCCATGTGGCCAACAAGGCCTATTTGTCGAT
DNA 2: ATCGACAAATAGGCCTTGTTGGCCACATGGATCGA
B4: the Kd in data set [5], in data set [6] and in data set [7] was below 10 nM each time.

For the origin of these results see publication PMC2760798 (Nucleic Acids Research, 2009).
